Here are results for 4 substances from PMC5639704.

For the experiment, the target named is Human TRF2^TRFH (residues 42-245) (human). Briefly: ITC.
Broadly, the Kd is the free concentration of one partner at which half of the binding sites on the other are occupied at equilibrium, for simple one-to-one binding. Lower therefore signals a tighter complex. With “WT hNBS1 peptide (423–438) (from UniProt O60934 423-438)”, the Kd was 17 µM.

Regarding WT mNBS1 peptide, the Kd was 19.8 µM.

“hNBS1^S432A peptide (423–438) (from UniProt O60934 423-438)” had an equilibrium dissociation constant (Kd) of 16 µM.

The substance mNBS1^S433A peptide returned a Kd of 21.7 µM.
